What was measured:
[1] = target: His-tagged NanoLuc-PP1α-HaloTag sensor (PP1-WT) (human, UniProt P62136 1-330, NanoBRET 618 ligand on the HaloTag); experiment: FRET or BRET
[2] = target: LgBiT-PP1α^WT (human, UniProt P62136 1-330); experiment: split reporter
[3] = target: LgBiT-PP1α^ΔC (human, UniProt P62136 1-298); experiment: split reporter
Chain of LgBiT-PP1α^ΔC (P62136 1-298, stated change not applied): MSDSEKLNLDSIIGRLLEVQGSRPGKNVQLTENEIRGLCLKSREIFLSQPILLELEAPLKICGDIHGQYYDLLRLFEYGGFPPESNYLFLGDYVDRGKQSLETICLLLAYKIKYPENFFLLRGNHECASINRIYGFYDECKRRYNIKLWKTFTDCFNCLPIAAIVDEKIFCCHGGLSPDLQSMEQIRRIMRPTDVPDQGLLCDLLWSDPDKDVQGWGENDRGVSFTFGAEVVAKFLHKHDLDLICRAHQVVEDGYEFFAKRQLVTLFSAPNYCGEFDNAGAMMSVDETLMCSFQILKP

Chain of His-tagged NanoLuc-PP1α-HaloTag sensor (PP1-WT) (P62136 whole entry): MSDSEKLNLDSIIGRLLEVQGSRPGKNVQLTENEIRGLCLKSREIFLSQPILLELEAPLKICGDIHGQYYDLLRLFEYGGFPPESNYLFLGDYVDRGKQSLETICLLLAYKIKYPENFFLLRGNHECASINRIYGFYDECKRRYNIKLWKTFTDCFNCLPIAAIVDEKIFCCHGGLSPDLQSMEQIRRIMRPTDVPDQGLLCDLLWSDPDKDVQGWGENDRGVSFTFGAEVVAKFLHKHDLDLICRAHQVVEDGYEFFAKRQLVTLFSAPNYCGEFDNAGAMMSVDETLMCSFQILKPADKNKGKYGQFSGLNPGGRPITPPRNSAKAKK
Chain of LgBiT-PP1α^WT (P62136 whole entry): as above

Row | binding result [1] | binding result [2] | binding result [3] | Binder
1 | binds | binds | binds | HIS-R2-WT (natural protein) MAASTASHRPIKGILKNKTSTTSSMVASAEQPRGNVDEELSKKSQKWDEMNILATYHPADKDYGLMKIDEPSTPYHSMMGDDEDACSDTEATEAMAPDILARKLAAAEGLEPKYRIQEQESSGEEDSDLSPEEREKKRQFEMKRKLHYNEGLNIKLARQLISKDLHDDDEDEEMLETADGESMNTEESNQGSTPSDQQQNKLRSS
2 | binds |  |  | HIS-ASPP1-(867–1090) (domain or fragment) RTNLKKPNSERTGHGLRVRFNPLALLLDASLEGEFDLVQRIIYEVEDPSKPNDEGITPLHNAVCAGHHHIVKFLLDFGVNVNAADSDGWTPLHCAASCNSVHLCKQLVESGAAIFASTISDIETAADKCEEMEEGYIQCSQFLYGVQEKLGVMNKGVAYALWDYEAQNSDELSFHEGDALTILRRKDESETEWWWARLGDREGYVPKNLLGLYPRIKPRQRTLA
